Consider one substance from patent US6326464.

Holding throughout (assay): cell_activity
Common to all, as to details: H358 cells, 50 ng plasmid

Series [1] has as its system V-336 (VP16-75-336-lz) (Homo sapiens / herpes simplex virus chimera).
Series [2] has as its system V-325 (VP16-75-325-lz) (Homo sapiens / herpes simplex virus chimera).
In series [3] the target is wild-type p53 (Homo sapiens) (UniProt P04637).
wild-type p53 (Homo sapiens), sequence (P04637 whole entry): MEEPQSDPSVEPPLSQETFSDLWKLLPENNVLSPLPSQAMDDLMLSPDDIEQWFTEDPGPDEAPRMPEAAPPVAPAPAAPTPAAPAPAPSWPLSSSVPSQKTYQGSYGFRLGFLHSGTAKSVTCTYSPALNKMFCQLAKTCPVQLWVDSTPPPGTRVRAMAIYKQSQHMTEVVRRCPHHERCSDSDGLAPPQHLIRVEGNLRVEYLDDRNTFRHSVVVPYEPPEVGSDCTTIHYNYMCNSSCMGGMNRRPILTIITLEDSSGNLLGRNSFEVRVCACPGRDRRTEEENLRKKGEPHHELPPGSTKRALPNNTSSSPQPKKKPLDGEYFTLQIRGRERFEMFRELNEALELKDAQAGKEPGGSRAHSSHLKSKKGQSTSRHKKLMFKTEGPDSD

For the substance p53RE consensus CAT reporter, the results for the activity (relative CAT activity (vector=1)) in series [1], in series [2] and in series [3] were 16, 25 and 6, respectively.
